Assay results: patent US20160185837A1 (AstraZeneca / MedImmune, published 2016)
Changes are numbered by the printed parent chain.

T1: human GIP receptor (human, UniProt P48546 22-466)
T1 sequence (looked up): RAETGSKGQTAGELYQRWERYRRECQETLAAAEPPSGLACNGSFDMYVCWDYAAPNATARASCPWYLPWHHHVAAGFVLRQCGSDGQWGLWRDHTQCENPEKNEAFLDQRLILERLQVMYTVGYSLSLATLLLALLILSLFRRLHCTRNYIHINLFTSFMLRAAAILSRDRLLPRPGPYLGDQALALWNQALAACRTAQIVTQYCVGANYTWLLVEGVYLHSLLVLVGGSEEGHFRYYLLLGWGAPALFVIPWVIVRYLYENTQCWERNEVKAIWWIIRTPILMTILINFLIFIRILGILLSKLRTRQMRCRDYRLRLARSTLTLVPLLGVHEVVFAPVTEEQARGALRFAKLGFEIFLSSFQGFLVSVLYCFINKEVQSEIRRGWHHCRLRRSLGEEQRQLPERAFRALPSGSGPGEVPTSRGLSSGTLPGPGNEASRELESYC

T2: mouse GIP receptor (mouse, UniProt Q0P543 19-460)
T2 sequence (looked up): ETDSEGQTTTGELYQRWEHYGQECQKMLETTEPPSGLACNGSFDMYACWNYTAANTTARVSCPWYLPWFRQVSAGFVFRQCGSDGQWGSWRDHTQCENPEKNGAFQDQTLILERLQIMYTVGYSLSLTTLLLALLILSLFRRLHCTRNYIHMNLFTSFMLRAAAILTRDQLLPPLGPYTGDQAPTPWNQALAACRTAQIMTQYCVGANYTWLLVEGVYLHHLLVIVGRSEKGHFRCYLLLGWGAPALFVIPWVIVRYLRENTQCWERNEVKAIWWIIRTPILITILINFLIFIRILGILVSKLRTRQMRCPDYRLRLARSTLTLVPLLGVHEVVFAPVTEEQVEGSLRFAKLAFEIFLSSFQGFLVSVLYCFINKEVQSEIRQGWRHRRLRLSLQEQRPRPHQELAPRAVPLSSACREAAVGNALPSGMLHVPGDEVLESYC

T3: rat GLP-1 receptor (rat, UniProt P32301 22-463)
T3 sequence (looked up): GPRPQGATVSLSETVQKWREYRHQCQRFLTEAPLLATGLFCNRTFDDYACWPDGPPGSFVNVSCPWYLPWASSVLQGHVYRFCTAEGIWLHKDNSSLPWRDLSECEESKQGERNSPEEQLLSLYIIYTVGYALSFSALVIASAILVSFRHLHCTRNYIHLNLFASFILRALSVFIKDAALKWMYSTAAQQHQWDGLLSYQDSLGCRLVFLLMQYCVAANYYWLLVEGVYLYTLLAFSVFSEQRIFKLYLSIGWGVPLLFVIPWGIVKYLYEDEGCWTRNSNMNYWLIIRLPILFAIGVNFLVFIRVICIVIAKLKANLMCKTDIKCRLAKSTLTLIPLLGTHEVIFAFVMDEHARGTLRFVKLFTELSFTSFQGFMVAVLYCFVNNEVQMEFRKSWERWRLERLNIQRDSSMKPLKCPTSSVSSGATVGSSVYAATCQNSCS

T4: rat GIP receptor (rat, UniProt P43219 19-455)
T4 sequence (looked up): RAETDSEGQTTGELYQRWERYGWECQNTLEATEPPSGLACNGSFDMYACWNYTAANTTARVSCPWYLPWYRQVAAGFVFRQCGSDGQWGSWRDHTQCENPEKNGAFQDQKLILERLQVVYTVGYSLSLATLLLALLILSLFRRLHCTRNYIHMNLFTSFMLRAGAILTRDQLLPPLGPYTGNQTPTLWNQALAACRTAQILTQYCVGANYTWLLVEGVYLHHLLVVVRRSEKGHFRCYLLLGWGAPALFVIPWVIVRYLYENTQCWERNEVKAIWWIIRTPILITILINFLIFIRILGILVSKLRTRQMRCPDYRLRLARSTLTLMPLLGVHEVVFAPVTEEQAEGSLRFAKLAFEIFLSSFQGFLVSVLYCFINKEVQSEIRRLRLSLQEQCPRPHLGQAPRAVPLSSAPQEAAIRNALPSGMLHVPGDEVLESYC

T5: mouse GLP-1 receptor (mouse, UniProt O35659 22-463)
T5 sequence (looked up): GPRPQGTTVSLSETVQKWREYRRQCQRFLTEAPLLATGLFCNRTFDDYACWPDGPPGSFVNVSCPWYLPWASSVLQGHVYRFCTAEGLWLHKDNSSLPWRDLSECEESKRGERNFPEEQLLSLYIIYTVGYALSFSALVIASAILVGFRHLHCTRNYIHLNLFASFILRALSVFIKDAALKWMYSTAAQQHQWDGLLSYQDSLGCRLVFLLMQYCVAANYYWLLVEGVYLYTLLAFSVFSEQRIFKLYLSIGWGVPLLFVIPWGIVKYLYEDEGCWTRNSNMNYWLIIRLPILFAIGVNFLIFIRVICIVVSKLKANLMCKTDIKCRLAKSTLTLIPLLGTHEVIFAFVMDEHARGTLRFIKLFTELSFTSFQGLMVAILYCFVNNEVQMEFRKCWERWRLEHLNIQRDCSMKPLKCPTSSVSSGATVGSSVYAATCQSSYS

B1: IP276 (Fc fusion)
chain: YSEGTFTSDYSKLLEEEAVRLFIEWLVKGPGGGGGGGGGGGGGGGGGATHTCPPC
B2: IP293 (Fc fusion)
chain: B1 chain with L21C, W25C, A48G, T49G, H50G, T51A
B3: IP272 (Fc fusion)
chain: YSEGTFTSDYSKLLEEEAVRLFIEWLLAQKAPPGGSGSTASSGSGSATGGGGAATHTCPPC
B4: IP273 (Fc fusion)
chain: B3 chain with L27V, A28K, Q29G, K30P, P32A, P33A
B5: IP200 (Fc fusion)
chain: YSQGTFTSDYSKILEEEAVRLFIEWLVKGPAAAGGSGSTASSGSGSATGGGGAATHTCPPCPAPEF
B6: IP291 (Fc fusion)
chain: YSEGTFTSDYSKLLEEECVRLFIEWLVKGGPGGGAPPPGCGGGGGGGGGGGGGGGGGACPPC
B7: IP292 (Fc fusion)
chain: B6 chain with C18A, L21C, P38C, C40G
B8: IP279 (Fc fusion)
chain: YSEGTFTSDYSKLLEEEAVRLFIEWLVKGPSSGAPPPSGGGGGSGGGGSGGGGSGGGGSATHTCPPC
B9: IP201 (Fc fusion)
chain: YSEGTFTSDYSKLLEEEAVRLFIEWLLAGPSSGAPPPSAAAGGSGSTASSGSGSATGGGGAATHTCPPCPAPEF
B10: IP278 (Fc fusion)
chain: YSEGTFTSDYSKLLEEEAVRLFIEWLVKGPPSSGAPPPSGGGGGSGGGGSGGGGSGGGGSATHTCPPC
B11: IP280 (Fc fusion)
chain: B10 chain with P30G
B12: IP253 (Fc fusion)
chain: YSEGTFTSDYSKLLDEEAVRLFIEWLLAGAPPGGSGSTASSGSGSATGGGGAATHTCPPCPAPEF
B13: IP267 (Fc fusion)
chain: YSEGTFTSDYSKLLEEEHVRLFIEWLVKGPGGGGGSGGGGSGGGGSGGGGSATHTCPPC
B14: IP268 (Fc fusion)
chain: B13 chain with H18A
B15: IP274 (Fc fusion)
chain: B13 chain with E16K, H18A, V27L

Target: T1, human GIP receptor
Test: cell-based or functional assay

| Binder | cAMP EC50 [nM] | cAMP EC50, Batch 2 [nM] | cAMP EC50, Batch 3 [nM] | cAMP EC50, hGIPr (C3) line [nM] |
| --- | --- | --- | --- | --- |
| B1 | 0.013 | – | – | – |
| B2 | 1.2 | – | – | – |
| B3 | 0.011 | – | – | – |
| B4 | 0.0084 | – | – | – |
| B5 | 0.018 | 0.012 | – | – |
| B6 | 0.12 | – | – | – |
| B7 | 0.043 | 0.046 | – | – |
| B8 | 0.01 | – | – | – |
| B9 | 0.011 | 0.034 | – | – |
| B10 | 0.011 | – | – | – |
| B11 | 0.0056 | 0.0045 | 0.0064 | – |
| B12 | 0.0093 | – | – | – |
| B13 | 0.12 | – | – | – |
| B14 | 0.01 | – | – | 3.8 |
| B15 | 0.017 | 0.014 | – | – |

Target: human GLP-1 receptor (human, UniProt P43220 24-463)
Test: cell-based or functional assay

| Binder | cAMP EC50 [nM] | cAMP EC50, Batch 2 [nM] | cAMP EC50, Batch 3 [nM] |
| --- | --- | --- | --- |
| B1 | 0.16 | – | – |
| B2 | 1.6 | – | – |
| B3 | 0.53 | – | – |
| B4 | 0.1 | – | – |
| B5 | 0.12 | 0.077 | – |
| B6 | 12 | – | – |
| B7 | 0.26 | 1.1 | – |
| B8 | 0.1 | – | – |
| B9 | 0.2 | 0.56 | – |
| B10 | 0.13 | – | – |
| B11 | 0.077 | 0.058 | 0.08 |
| B12 | 0.26 | – | – |
| B13 | 1.5 | – | – |
| B14 | 0.12 | – | – |
| B15 | 0.36 | 0.2 | – |

Target: T2, mouse GIP receptor
Test: cell-based or functional assay

| Binder | cAMP EC50 [nM] | cAMP EC50, Batch 2 [nM] |
| --- | --- | --- |
| B1 | 510 | – |
| B2 | 7800 | – |
| B3 | 11 | – |
| B4 | 85 | – |
| B5 | – | 160 |
| B6 | 680 | – |
| B7 | 66 | 55.4 |
| B8 | 43 | – |
| B9 | 4.3 | 1.6 |
| B10 | 85 | – |
| B11 | 8.8 | – |
| B12 | 0.61 | – |
| B13 | > 278 | – |
| B14 | 210 | – |
| B15 | 1 | – |

Target: T3, rat GLP-1 receptor
Test: cell-based or functional assay

| Binder | cAMP EC50 [nM] | cAMP EC50, Batch 2 [nM] |
| --- | --- | --- |
| B1 | 0.028 | – |
| B2 | 0.45 | – |
| B3 | 0.085 | – |
| B4 | 0.02 | – |
| B5 | – | 0.028 |
| B6 | 3 | – |
| B7 | 0.037 | 0.0432 |
| B8 | 0.024 | – |
| B9 | 0.098 | 0.028 |
| B10 | 0.026 | – |
| B11 | 0.027 | – |
| B12 | 0.21 | – |
| B13 | 0.3 | – |
| B14 | 0.026 | – |
| B15 | 0.057 | – |

Target: human glucagon receptor (human, UniProt P47871 26-477)
Test: cell-based or functional assay

| Binder | cAMP EC50 [nM] | cAMP EC50, Batch 2 [nM] | cAMP EC50, Batch 3 [nM] |
| --- | --- | --- | --- |
| B1 | 1500 | – | – |
| B2 | > 13000 | – | – |
| B3 | 1700 | – | – |
| B4 | 670 | – | – |
| B5 | 0.11 | 0.083 | – |
| B6 | > 10600 | – | – |
| B7 | > 13600 | > 14900 | – |
| B8 | 170 | – | – |
| B9 | 3.9 | 11 | – |
| B10 | 78 | – | – |
| B11 | 520 | 270 | 280 |
| B12 | 78 | – | – |
| B13 | 5800 | – | – |
| B14 | 2900 | – | – |
| B15 | 38 | 30 | – |

Target: T4, rat GIP receptor
Test: cell-based or functional assay

| Binder | cAMP EC50 [nM] | cAMP EC50, Batch 2 [nM] |
| --- | --- | --- |
| B1 | 0.26 | – |
| B2 | 16 | – |
| B3 | 0.048 | – |
| B4 | 0.09 | – |
| B5 | – | 0.25 |
| B6 | 1.4 | – |
| B7 | 0.29 | 0.186 |
| B8 | 0.097 | – |
| B9 | 0.23 | 0.019 |
| B10 | 0.13 | – |
| B11 | 0.046 | – |
| B12 | 0.024 | – |
| B13 | 0.81 | – |
| B14 | 0.15 | – |
| B15 | 0.028 | – |

Target: T5, mouse GLP-1 receptor
Test: cell-based or functional assay

| Binder | cAMP EC50 [nM] | cAMP EC50, Batch 2 [nM] |
| --- | --- | --- |
| B1 | 0.34 | – |
| B2 | 13 | – |
| B3 | 2.3 | – |
| B4 | 0.19 | – |
| B5 | – | 0.34 |
| B6 | 120 | – |
| B7 | 1.2 | 1.32 |
| B8 | 0.22 | – |
| B9 | 0.65 | 0.41 |
| B10 | 0.32 | – |
| B11 | 0.21 | – |
| B12 | 3.8 | – |
| B13 | 10 | – |
| B14 | 0.28 | – |
| B15 | 1.2 | – |
